EP4714469A1, “PHARMACEUTICAL COMPOSITION COMPRISING ANTIBODY-DRUG CONJUGATE” (CSPC Megalith Biopharmaceutical Co., Ltd., priority 2023, dated 2024)
Marks after values point to notes of the source that are not given here. Blank lines part the entries; values can stand above or below the molecule they belong to. Starred links: 1 amine or outer side, 2 acyl side, 3 side chain; linkers in the order of their positions; H or OH if unused. Non-standard residues stand in square brackets, D forms with d. Residues, ends and D or L forms follow the SMILES beside them. *: point of attachment. Exatecan = CC[C@@]1(O)C(=O)OCc2c1cc1n(c2=O)Cc2c-1nc1cc(F)c(C)c3c1c2[C@@H](N*)CC3; Hexanoyl(6-maleimido) = O=C1C=CC(=O)N1CCCCCC(=O)*; X1 = C[C@@H](OCN[*:1])C(=O)[*:2]

Columns and labels:
[1] = system: human lung cancer PC9-GR (gefitinib-resistant cell) xenograft tumor; experiment: Assay 3: PC9-GR xenograft efficacy of patritumab-ADC; format: in vivo, NU/NU mice; details: 3 mg/kg i.v./qw*4w
From the text: NU/NU mice, 5-6 weeks old, 16 mice
(§1) The assay was terminated on day 28 after the administration.

[2] = system: human colon cancer SW620 xenograft tumor; experiment: Assay 15: SW620 xenograft efficacy; format: in vivo, NU/NU mice; details: 7 mg/kg i.v./single administration
From the text: (§2) NU/NU mice, 5-6 weeks old, 18 mice
The assay was terminated on day 26 after the administration.

[3] = system: human colorectal cancer DiFi xenograft tumor; experiment: Assay 16: DiFi xenograft efficacy of patritumab-ADC; format: in vivo, NU/NU mice; details: 10 mg/kg i.v./qw*3w (as in Table 29)
From the text: as §2, §1

[4] = Assay 8: stability of linker-drug compounds; format: physicochemical; details: high temperature, high humidity, illumination or 0.5% BSA-PBS; compared with Deruxtecan
Experimental: Different linker-drug compounds such as Deruxtecan and JSSW-001 were studied under high temperature (40°C, 60°C), high humidity (25°C/75% RH and 25°C/92.5% RH), illumination (illuminance 4500Lux, near-UV energy 90µw/cm^2), or 0.5% BSA-PBS conditions. Samples were collected at different times after exposure to these conditions, and the concentration changes of the linker-drug compounds in the samples were detected using the LC-MS/MS method.

EGFR on MDA-MB-468 cells [5] = biological target: T1, EGFR on MDA-MB-468 cells (human, UniProt P00533 25-1210); experiment: flow cytometry (FACS) on MDA-MB-468 cells, pH 6.0; end of the range tied to SWY2111 by Table 1
T1 construct: whole, on cells; also called target antigen; HER1

EGFR on MDA-MB-468 cells [6] = biological target: T1, EGFR on MDA-MB-468 cells; experiment: flow cytometry (FACS) on MDA-MB-468 cells, pH 7.4; end of the range tied to SWY2111 by Table 1
EGFR on MDA-MB-468 cells [7] = biological target: T1, EGFR on MDA-MB-468 cells; experiment: flow cytometry (FACS) on MDA-MB-468 cells, antibody diluted in PBS pH 6.0, FITC anti-human Fc secondary
EGFR on MDA-MB-468 cells [8] = biological target: T1, EGFR on MDA-MB-468 cells; experiment: flow cytometry (FACS) on MDA-MB-468 cells, antibody diluted in PBS pH 7.4, FITC anti-human Fc secondary
EGFR on MDA-MB-468 cells [9] = biological target: T1, EGFR on MDA-MB-468 cells; experiment: flow cytometry (FACS) on MDA-MB-468 cells, pH 6.0
EGFR on MDA-MB-468 cells [10] = biological target: T1, EGFR on MDA-MB-468 cells; experiment: flow cytometry (FACS) on MDA-MB-468 cells, pH 7.4; end of the range tied to SWY2113 by Table 1
EGFR on MDA-MB-468 cells [11] = biological target: T1, EGFR on MDA-MB-468 cells; experiment: flow cytometry (FACS) on MDA-MB-468 cells, pH 6.0; end of the range tied to SWY2112 by Table 1

Molecule: patritumab-DXD ADC (DAR=7.3): patritumab conjugated with commercially available Deruxtecan [reference compound]
- TGI (%) Day 28 [1]: 59.5%
- Tumor Volume ([1]; 28 days): 373.4 ± 102.8** mm^3
- TGI (%) Day 21 [2]: 73.2%
- Tumor Volume ([2]; 21 days): 461.3±278.1*** mm^3
- TGI (%) Day 28 [3]: 54.0%
- Tumor Volume ([3]; 28 days): 512.5 ± 470.8* mm^3

Molecule: CC[C@@]1(O)C(=O)OCc2c1cc1n(c2=O)Cc2c-1nc1cc(F)c(C)c3c1c2[C@@H](NC(=O)[C@@H](C)OCNC(=O)CNC(=O)[C@H](Cc1ccccc1)NC(=O)CNC(=O)CNC(=O)CCCCCN1C(=O)C=CC1=O)CC3 [JSSW-001, N-((2R,10S)-10-benzyl-1-(((1S,9S)-9-ethyl-5-fluoro-9-hydroxy-4-methyl-10,13-dioxo-2,3,9,10,13,15-hexahydro-1H,12H-benzo[de]pyrano[3',4':6,7]indolizino[1,2-b]quinolin-1-yl)amino)-2-methyl-1,6,9,12,15-pentaoxo-3-oxa-5,8,11,14-tetraazahexadecan-16-yl)-6-(2,5-dioxo-2,5-dihydro-1H-pyrrol-1-yl)hexanamide] ({Hexanoyl(6-maleimido)}-GGFG[X1]-Exatecan)
- stability of linker-drug compound [4]: better stability

- fold change of affinity compared to SWY2110 at pH=6.0 (EGFR on MDA-MB-468 cells [5]): 1.2 to 1.3 times
- fold decrease of affinity compared to SWY2110 at pH=7.4 (EGFR on MDA-MB-468 cells [6]): 3 times
- EC50 (EGFR on MDA-MB-468 cells [7]): 0.6 nM
- EC50 (EGFR on MDA-MB-468 cells [8]): 1.45 nM
B1: SWY2111 (antibody, human IgG1, kappa, V domains shown)
VH: QVQLQESGPGLVKPSETLSLTCTVSGFSLSDYDVHWVRQAPGKGLEWLGVIWSGGNTDYNTPFTSRLTISVDTSKNQFSLKLSSVTAADTAVYYCARALDDYDYEFAYWGQGTLVTVSS
VL: EIVLTQSPDFQSVTPKEKVTITCRASQSIGTNIHWYQQKPDQSPKLLIKYASESISGIPSRFSGSGSGTDFTLTINSLEAEDAATYYCQQNNEWPTSFGQGTKLEIKR
notes: also called EGFR antibody SWY2111

- fold decrease of affinity compared to SWY2110 at pH=6.0 (EGFR on MDA-MB-468 cells [9]): 6.6 times
- fold decrease of affinity compared to SWY2110 at pH=7.4 (EGFR on MDA-MB-468 cells [10]): 3 to 9.7 times
- EC50 (EGFR on MDA-MB-468 cells [7]): 3.39 nM
- EC50 (EGFR on MDA-MB-468 cells [8]): 4.76 nM
B2: SWY2113 (antibody, human IgG1, kappa, V domains shown)
VH: QVQLQESGPGLVKPSETLSLTCTVSGFSLSHYDVHWVRQAPGKGLEWLGVIWSGGNTDYNTPFTSRLTISVDTSKNQFSLKLSSVTAADTAVYYCARALDDYDYEFAYWGQGTLVTVSS
VL: EIVLTQSPDFQSVTPKEKVTITCRASQSIGTNIHWYQQKPDQSPKLLIKYASESISGIPSRFSGSGSGTDFTLTINSLEAEDAATYYCQQNNEWPTSFGQGTKLEIKR
notes: also called EGFR antibody SWY2113

- fold change of affinity compared to SWY2110 at pH=6.0 (EGFR on MDA-MB-468 cells [11]): 1.2 to 1.3 times
- EC50 (EGFR on MDA-MB-468 cells [7]): 0.67 nM
- EC50 (EGFR on MDA-MB-468 cells [8]): 2.35 nM
B3: SWY2112 (antibody, human IgG1, kappa, V domains shown)
VH: QVQLQESGPGLVKPSETLSLTCTVSGFSLSEYDVHWVRQAPGKGLEWLGVIWSGGNTDYNTPFTSRLTISVDTSKNQFSLKLSSVTAADTAVYYCARALDDYDYEFAYWGQGTLVTVSS
VL: EIVLTQSPDFQSVTPKEKVTITCRASQSIGTNIHWYQQKPDQSPKLLIKYASESISGIPSRFSGSGSGTDFTLTINSLEAEDAATYYCQQNNEWPTSFGQGTKLEIKR
notes: also called EGFR antibody SWY2112
